The results in this text go back to patent publication US20180155426A1 (SANFORD BURNHAM PREBYS MEDICAL DISCOVERY INSTITUTE, published 2018).

In assay [1] the target is T1, huBTLA:huIgG recombinant fusion protein (human, UniProt Q7Z6A9 31-157, limits assumed).
T1 construct: Produced in 293T cells; Used as the immunogen and as the ELISA screening antigen; not shown: human IgG portion
T1 sequence (looked up): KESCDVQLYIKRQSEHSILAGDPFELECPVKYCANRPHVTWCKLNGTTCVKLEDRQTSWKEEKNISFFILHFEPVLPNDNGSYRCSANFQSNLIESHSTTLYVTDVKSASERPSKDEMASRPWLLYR
The assay can be described thus: ELISA screen against huBTLA:huIgG (with purified huIgG as counter-screen). In general terms: An ELISA detects its analyte on a solid surface through an enzyme-linked reagent.

In assay [2] the target is T2, human BTLA expressed on cells (human, UniProt Q7Z6A9 31-289).
T2 construct: whole, on cells; also called huBTLA; B and T lymphocyte attenuator
As to the kind of experiment: flow cytometry on MEF cells expressing huBTLA compared to non-BTLA expressing parental cells.
Description: The resulting hybridoma clones were screened by ELISA against huBTLA:huIgG and purified huIgG to identify those specific for huBTLA. A secondary screen was performed by binding to Beg+/+MEF cells expressing huBTLA and analyzing by flow cytometry compared to the non-BTLA expressing parental cells.

B1: anti-human BTLA monoclonal antibody clone 6F4 (antibody, V domains shown)
VH: EVQILETGGGLVKPGGSLRLSCATSGFNFNDYFVNWVRQAPGKGLQWVAQIRNKNYNPATYYAESLEGRVTISRDDSKSSVYLQVSSVRAEDTAIYYCSPISSYYHDGSLHYSDYWGQGVMVTVSS
VL: DIQMTQSPSVLSVSVGDRVTLNCKASHNIKNYLNWYQQKLGEAPKLLIYDTVNLQTGIPSRFSGSGSGTDFTVTISSLQPEDVATYFCFQYHSWPYTFGAGTKLELKR
notes: also called rat anti-hBLTA Mab Clone 6F4; Anti BTLA 6F4
With B1, the binding result in assay [1] and in assay [2] was “binds” throughout.
